Test results as given in US20160362487A1 (Regeneron, published 2016).

What was measured:
[1] = target: T1, human IL-33 (R&D Systems, #3625-IL-010/CF) (human, UniProt O95760 112-270); test: SPR 37C, pH6.0 chase, mAb captured
T1 construct: Commercial recombinant protein; also called hIL-33; interleukin-33
T1 sequence (looked up): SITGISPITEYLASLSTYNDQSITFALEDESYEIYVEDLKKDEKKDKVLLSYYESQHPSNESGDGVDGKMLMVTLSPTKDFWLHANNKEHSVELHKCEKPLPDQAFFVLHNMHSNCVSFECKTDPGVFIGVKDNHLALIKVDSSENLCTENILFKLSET
Summary of the method: (§1)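 For the pH chase, IL-33 bound the captured mAb for 4 min at pH 7.4, dissociated 30 s in the same buffer, then pH 6.0 ADA buffer was injected for 3 min while dissociation was recorded. Rates were fit to a 1:1 binding model.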

[2] = target: T2, cynomolgus monkey IL-33 expressed with a C-terminal hexahistidine tag (cynomolgus monkey); test: SPR 37C, pH6.0 chase, mAb captured
T2 construct: also called MfIL-33-6His; Mf-IL-33-6His
T2 chain: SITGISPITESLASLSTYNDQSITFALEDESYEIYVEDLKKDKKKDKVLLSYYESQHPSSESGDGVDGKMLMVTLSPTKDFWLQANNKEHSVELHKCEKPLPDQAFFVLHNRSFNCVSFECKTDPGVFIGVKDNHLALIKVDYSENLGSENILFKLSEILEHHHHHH
Summary of the method: as §1

[3] = target: T2, cynomolgus monkey IL-33 expressed with …; test: competition ELISA, 150 pM MfIL-33-6His on coated hST2-hFc
Summary of the method: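 Readout was TMB absorbance at 450 nm after HRP detection (streptavidin for biotin-hIL-33, anti-His for MfIL-33-6His) on human ST2-hFc-coated wells. Antibodies preincubated 1 h at RT with fixed IL-33 (30 pM human, 150 pM cynomolgus) before 1 h plate binding; blockade scaled between IL-33-only and no-IL-33 signals.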

[4] = target: T1, human IL-33 (R&D Systems, …); test: SPR 25C pH7.4, mAb captured
Summary of the method: (§2)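 Captured-mAb SPR kinetics: 4 min IL-33 injection, 10 min buffer dissociation, pH 7.4 ADA/NaCl/EDTA/Tween-20 buffer, 1:1 model fitting to give ka, kd, KD and t½.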

[5] = target: T2, cynomolgus monkey IL-33 expressed with …; test: SPR 25C pH7.4, mAb captured
Summary of the method: as §2

[6] = target: T1, human IL-33 (R&D Systems, …); test: cell-based or functional assay
[7] = target: T2, cynomolgus monkey IL-33 expressed with …; test: cell-based or functional assay

B1: H1M9559N (antibody, mouse IgG1, V domains shown)
VH: QVQLVESGGGVVQPGRSLRLSCAASGFTFSSYGMHWVRQAPGKGLEWVAVIWYDGRNKYYTDSVKGRFTISRDNSKNTLYLQMDSLRAEDTAVYYCARERYISSYYGGFDPWGQGALVTVSS
VL: DIQMTQSPSSVSASVGDRVTITCRASQGISSWLAWYQQKPGKAPKVLIYAASSLQSGVPSRFSGSGSGTDFTLTISSLQPEDFATYYCQQANSFPFTFGPGTKLDIK
notes: Human variable domains, mouse IgG1 Fc (H1M)
koff [1]: 0.000992 s⁻¹
t½ [1]: 12 min
t½ Ratio (pH 7.4/pH 6.0) [1]: 1
koff [2]: 0.00307 s⁻¹
t½ [2]: 4 min
t½ Ratio (pH 7.4/pH 6.0) [2]: 0.9
% Maximum blocking [3]: 53%
IC50 [3]: 10 nM
Kd [4]: 0.678 nM
koff [4]: 0.000274 s⁻¹
kon [4]: 404000 M⁻¹ s⁻¹
t½ [4]: 42 min
Kd [5]: 3.82 nM
koff [5]: 0.00123 s⁻¹
kon [5]: 321000 M⁻¹ s⁻¹
t½ [5]: 9 min
IC50, inhibition of 10 pM hIL-33 activation of HEK293/hST2/NFkB-luciferase cells [6]: 2e-09 M
IC50, inhibition of 5 pM MfIL-33-6His activation of HEK293/hST2/NFkB-luciferase cells [7]: 4.9e-08 M
